*: point of attachment. MTSL = CC1(C)C=C(CS*)C(C)(C)N1[O]

These results are taken from paper PMC5774749, “Coiled-coil formation of the membrane-fusion K/E peptides viewed by electron paramagnetic resonance” (PLoS ONE, 2018).

The labels stand for the following.
B1: E-SL (peptide)
peptide: Ac-EIAALEKEIAALEKEIAALEKGYC(MTSL)-NH2
SMILES: CC[C@H](C)[C@H](NC(=O)[C@H](CCC(=O)O)NC(C)=O)C(=O)N[C@@H](C)C(=O)N[C@@H](C)C(=O)N[C@@H](CC(C)C)C(=O)N[C@@H](CCC(=O)O)C(=O)N[C@@H](CCCCN)C(=O)N[C@@H](CCC(=O)O)C(=O)N[C@H](C(=O)N[C@@H](C)C(=O)N[C@@H](C)C(=O)N[C@@H](CC(C)C)C(=O)N[C@@H](CCC(=O)O)C(=O)N[C@@H](CCCCN)C(=O)N[C@@H](CCC(=O)O)C(=O)N[C@H](C(=O)N[C@@H](C)C(=O)N[C@@H](C)C(=O)N[C@@H](CC(C)C)C(=O)N[C@@H](CCC(=O)O)C(=O)N[C@@H](CCCCN)C(=O)NCC(=O)N[C@@H](Cc1ccc(O)cc1)C(=O)N[C@@H](CSSCC1=CC(C)(C)N([O])C1(C)C)C(N)=O)[C@@H](C)CC)[C@@H](C)CC
notes: designed coiled-coil zipper peptide E; printed as Ac-(EIAALEK)3-GYC(SL)-NH2, the repeat written out three times; degree of spin labelling around 80%; also called E-peptide, spin labelled at the C-terminus; E-Cys
B2: K (peptide)
peptide: Ac-KIAALKEKIAALKEKIAALKEGW-NH2
notes: designed coiled-coil zipper peptide K; printed as Ac-(KIAALKE)3-GW-NH2, the repeat written out three times; unlabelled peptide added to E-SL in the room-temperature cw-EPR; the details of these samples are in S1 Text; also called K-peptide; peptide K; source: synthetic peptide
B3: K-SL (peptide)
peptide: Ac-KIAALKEKIAALKEKIAALKEGWC(MTSL)-NH2
SMILES: CC[C@H](C)[C@H](NC(=O)[C@H](CCCCN)NC(C)=O)C(=O)N[C@@H](C)C(=O)N[C@@H](C)C(=O)N[C@@H](CC(C)C)C(=O)N[C@@H](CCCCN)C(=O)N[C@@H](CCC(=O)O)C(=O)N[C@@H](CCCCN)C(=O)N[C@H](C(=O)N[C@@H](C)C(=O)N[C@@H](C)C(=O)N[C@@H](CC(C)C)C(=O)N[C@@H](CCCCN)C(=O)N[C@@H](CCC(=O)O)C(=O)N[C@@H](CCCCN)C(=O)N[C@H](C(=O)N[C@@H](C)C(=O)N[C@@H](C)C(=O)N[C@@H](CC(C)C)C(=O)N[C@@H](CCCCN)C(=O)N[C@@H](CCC(=O)O)C(=O)NCC(=O)N[C@@H](Cc1c[nH]c2ccccc12)C(=O)N[C@@H](CSSCC1=CC(C)(C)N([O])C1(C)C)C(N)=O)[C@@H](C)CC)[C@@H](C)CC
notes: designed coiled-coil zipper peptide K; printed as Ac-(KIAALKE)3-GWC(SL)-NH2, the repeat written out three times; degree of spin labelling around 70%; also called K-peptide, spin labelled at the C-terminus
B4: E (peptide)
peptide: Ac-EIAALEKEIAALEKEIAALEKGY-NH2
notes: designed coiled-coil zipper peptide E; printed as Ac-(EIAALEK)3-GY-NH2, the repeat written out three times; unlabelled peptide added to K-SL or SL-K in the room-temperature cw-EPR; the details of these samples are in S1 Text; also called E-peptide; peptide E; source: synthetic peptide
B5: SL-K (peptide)
peptide: Ac-C(MTSL)KIAALKEKIAALKEKIAALKEGW-NH2
SMILES: CC[C@H](C)[C@H](NC(=O)[C@H](CCCCN)NC(=O)[C@H](CSSCC1=CC(C)(C)N([O])C1(C)C)NC(C)=O)C(=O)N[C@@H](C)C(=O)N[C@@H](C)C(=O)N[C@@H](CC(C)C)C(=O)N[C@@H](CCCCN)C(=O)N[C@@H](CCC(=O)O)C(=O)N[C@@H](CCCCN)C(=O)N[C@H](C(=O)N[C@@H](C)C(=O)N[C@@H](C)C(=O)N[C@@H](CC(C)C)C(=O)N[C@@H](CCCCN)C(=O)N[C@@H](CCC(=O)O)C(=O)N[C@@H](CCCCN)C(=O)N[C@H](C(=O)N[C@@H](C)C(=O)N[C@@H](C)C(=O)N[C@@H](CC(C)C)C(=O)N[C@@H](CCCCN)C(=O)N[C@@H](CCC(=O)O)C(=O)NCC(=O)N[C@@H](Cc1c[nH]c2ccccc12)C(N)=O)[C@@H](C)CC)[C@@H](C)CC
notes: designed coiled-coil zipper peptide K; printed as Ac-C(SL)-(KIAALKE)3-GW-NH2, the repeat written out three times; degree of spin labelling around 80%; also called K-peptide, spin labelled at the N-terminus; Cys-K

Series [1] has as its target B5. Kind of series: DEER (double electron-electron resonance); frozen solution, 40 K, 9.7 GHz; PBS with 20% (wt) glycerol; total peptide 0.3 mM, mixtures equimolar; same samples as for cw-EPR; Tikhonov regularization. Particulars: both partners purified.
For series [2], the target named is B3. Kind of series: continuous-wave EPR of frozen solution; 120 K, 9.7 GHz; PBS with 20% (wt) glycerol; total peptide 0.3 mM, mixtures equimolar; line broadening against free MTSL, distances from simulation of the spectra. Particulars: both partners purified.
In the series “E-SL” the target is B1. Nature of the series: continuous-wave EPR at room temperature; solution; rotation-correlation time of the spin-labelled peptide with and without the unlabelled partner; described in S1 Text. Particulars: both partners purified.
Series [3] concerns the molecule itself. Nature of the series: continuous-wave EPR of frozen solution; 120 K, 9.7 GHz; PBS with 20% (wt) glycerol; total peptide 0.3 mM, mixtures equimolar; line broadening against free MTSL, distances from simulation of the spectra.
In series [4] the target is B3. Kind of series: continuous-wave EPR at room temperature; solution; rotation-correlation time of the spin-labelled peptide with and without the unlabelled partner; described in S1 Text. The note with it: both partners purified.
Series [5] addresses B5. The description is as above. The note with it: both partners purified.
Series [6] concerns the molecule itself. Kind of series: DEER (double electron-electron resonance); frozen solution, 40 K, 9.7 GHz; PBS with 20% (wt) glycerol; total peptide 0.3 mM, mixtures equimolar; same samples as for cw-EPR; Tikhonov regularization.

In the case of B1, the binding result with SL-K [1] and with K-SL [2] was “binds” in each case.

In the case of B2, the binding result with E-SL is “binds”.

Regarding B3, in series [3], the binding result is reported as “binds”.

Consider B4, for which the binding result with K-SL [4] and with SL-K [5] was “binds” each time.

Consider B5, for which, in series [6], the binding result is listed as “binds”.
